How the values were obtained:
[1] = target: mouse GCGR (full-length, on HEK293 reporter cells) (mouse) (UniProt Q61606); assay: cell-based or functional assay
[2] = target: rat GCGR (full-length, on transiently transfected HEK293 reporter cells) (rat) (UniProt P30082); assay: cell-based or functional assay
Sequence of rat GCGR (full-length, on transiently transfected HEK293 reporter cells) (rat) (P30082 27-485 limits assumed): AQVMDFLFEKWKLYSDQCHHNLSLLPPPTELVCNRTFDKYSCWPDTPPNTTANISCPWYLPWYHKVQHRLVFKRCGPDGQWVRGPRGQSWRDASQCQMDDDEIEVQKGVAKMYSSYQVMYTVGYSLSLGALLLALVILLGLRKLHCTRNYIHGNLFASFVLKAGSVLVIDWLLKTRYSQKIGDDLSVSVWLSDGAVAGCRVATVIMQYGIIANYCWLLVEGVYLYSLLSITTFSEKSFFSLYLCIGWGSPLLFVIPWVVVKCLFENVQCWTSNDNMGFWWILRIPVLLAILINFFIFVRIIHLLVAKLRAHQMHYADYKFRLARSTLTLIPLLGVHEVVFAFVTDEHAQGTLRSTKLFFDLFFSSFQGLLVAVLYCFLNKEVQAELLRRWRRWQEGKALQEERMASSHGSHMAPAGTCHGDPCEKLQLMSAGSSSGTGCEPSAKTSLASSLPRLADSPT

Sequence of mouse GCGR (full-length, on HEK293 reporter cells) (mouse) (Q61606 27-485 limits assumed): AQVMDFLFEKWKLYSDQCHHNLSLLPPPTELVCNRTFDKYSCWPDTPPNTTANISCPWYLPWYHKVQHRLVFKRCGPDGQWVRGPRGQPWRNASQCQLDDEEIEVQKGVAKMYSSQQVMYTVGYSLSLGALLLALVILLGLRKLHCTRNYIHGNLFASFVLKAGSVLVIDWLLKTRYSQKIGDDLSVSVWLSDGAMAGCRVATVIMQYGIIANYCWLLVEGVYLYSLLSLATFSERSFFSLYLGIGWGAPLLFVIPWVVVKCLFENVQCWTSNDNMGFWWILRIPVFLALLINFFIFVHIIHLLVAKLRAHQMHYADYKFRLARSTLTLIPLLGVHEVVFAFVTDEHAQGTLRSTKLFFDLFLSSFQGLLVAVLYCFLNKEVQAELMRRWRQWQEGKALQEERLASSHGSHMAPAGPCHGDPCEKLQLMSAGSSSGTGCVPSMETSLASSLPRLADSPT

EC50, luciferase activity in HEK293/mGCGR reporter cells [1]: 0.083 nM | EC50, luciferase activity in HEK293 reporter cells transfected with rat GCGR [2]: 0.252 nM
Substance: glucagon (GCG) (from UniProt P01275 53-81) (ligand)

— patent publication US20130251728A1
